Assay: yeast display, Sf9 membrane polyspecificity reagent, FACS + sequencing; frameworks hold sequencing errors
Outline: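 A nanobody's polyreactivity label depends on the gate it was sorted from. Yeast display cells were stained with 10% biotinylated, detergent-solubilized Sf9 membrane reagent for 1 hour at 4 °C, enriched on streptavidin microbeads and sorted by FACS. The low and high (top ~1%) gates were set on anti-HA fluorescence for expression and streptavidin fluorescence for reagent binding.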

| Sequence | polyreactivity (PSR sort gate) |
| --- | --- |
| QVQLVESGGVLVQAGGSLRLSCAASGITFGDNAMGWYRQAPGKERELVAAITTSVDSTYYADSVKGRFTISRDNAKNTVYLQMNSLKPEDTAVYYCAVAFVQFTQYDYWGQGTQVTVSS | low polyreactivity |
| QVQLVESGGVLVQAGGSLRLSCAASGITFIGYAMGWYRQAPGKERELVASITSGANTNYADSVKGRFTISRDNAKNTVYLQMNSVKAEDTAVYYCAAPEHGTYANILGEPLDYWGQGTQVTVSS | low polyreactivity |
| QVQLVESGGVLVQAGGSLRLSCAASGITFPGYAMGWYRKAPGKERELVAAISAIGGRTYYADSVKGRFTISRYNAKNTVYLQMNSLKPEDTAVYYCNVLPYGGKKPTLFDYWGQGTQVTVSS | high polyreactivity |
| QVQLVESGGVLVQAGGSLRLSCAASGNIFVPYAMGWYRQAPGKERDLVAAISSRGGRTYYADSVKGRFTISRDNAKNTVYLQMNSLKPEDTAVFYCNKVAKSSVLTLDYWGQGTQVTVSS | high polyreactivity |
| QVQLVESGGVLVQAGGSLRLSCAASGRIFDDYAMGWYRQAPGKERELVAAIRSGGNSNYADSVKGRFTISRDNAKNTVYLQMNSLTPEETAVYYCAADEVRSAWRCSSPPDYDHWGQGTHVTVSS | low polyreactivity |
| QVQLVESGGVLVQAGGSLRLSCAASGRIFHYYAMGWYRQAPGKETELVAANSSRRGSTYYADSVKGRFTISRDNAKNNFYLQMNILKAYDTAVYYCNARGWGYWVRFDYWGQGTQVTVSS | high polyreactivity |
| QVQLVESGGVLVQAGGSLRLSCAASGRIFRNYVMGWYRQAPGKEREMVAAISRSGGSTYYADSVKGRFTISRDNAKNTVYLQMNSLKPEDTAVYYCNAEYASRRVSERDYWGQGTQVTVSS | high polyreactivity |
| QVQLVESGGVLVQAGGSLRLSCAASGRILFSYGMGWYRQATGKERELVARISWSGGNTHYADSVKGRFTISRDNAKNTVYLQMNSLKPEDTAVYYCNAYYTYWYPRYDYWGQGTQVTVSS | low polyreactivity |
| QVQLVESGGVLVQAGGSLRLSCAASGRTFLNYTMGWYRQAPRKDIELVAAISTSGGSTNYADSVKGRFTISRDNAKNTVYLQMTSLKPEDTAVYYCAAETSTKPEAYEYWGQGTQVTVSS | low polyreactivity |
| QVQLVESGGVLVQAGGSLRLSCAASGRTFYGYAMGWNRQAPGKERYLVAAIDIDVGNTYYADSVKGRFTISRDNAKNTVYLQMNSLKPEDTAVYYCAAEIPSWWLPALFRYDYWGQGTQVTVSS | low polyreactivity |
| QVQLVESGGVLVQAGGSLRLSCAASGRTFYLYAMGWSRQAPGKERELVAAISRSGGITYYADSVKGRFTISRDNAKNTVYLQMNSLKPEDTAVYYCAASRAGGYYGKGYSWGQGTQVTVSS | high polyreactivity |
| QVQLVESGGVLVQAGGSLRLSCAASGRTFYSYAMGWYRQAPGNERELVAAITSSGGSTYYADSVKGRFTISRDNAKNTVYLQMNRLKPEDTAVYYCAAPRGRHFDYWGQGTQVTVSS | high polyreactivity |
| QVQLVESGGVLVQAGGSLRLSCAASGRTVTVNAMGWYRQAPGKERELVAAITGRGGNTNYADSLKGRFTISRDNAKNTVYLQMNSQKPEDTAVFYCYARYHGRAKHDYWGQGTQVTVSS | high polyreactivity |
| QVQLVESGGVLVQAGGSLRLSCAASGSIFWSNAMGWSRQAPGKERELVAAITTSDGSTYYADSVKGRFTISRDHAKNTVYLQMNSLKPEDSAVYYCAADASTWYTEEYWGQGTQVTVSS | low polyreactivity |
| QVQLVESGGVLVQAGGSLRLSCAASGSIFYSYAMGWYRQAPGKDRELVAAITRSGGSTYYADSVKGRFTISRENAKNTVYVQMHSLKPEDTAGYYCNARGKGDYYWGQGTQVTVSS | high polyreactivity |
| QVQLVESGGVLVQAGGSLRLSCAASGSTFGLNAMGWYRQAPGKERELVAAITRSDITNYADSVKGRFTISRDNAKNTVYLQMNSLKPEDTAVYYCAARGLWPYDYWGQGTQVTVSS | low polyreactivity |
| QVQLVESGGVLVQAGGSLRLSCAASGSTFHRSAMGWYRQAPGKERELVATINLNTGSTYADSVKGRFTISRDNAKNTVYLQMNSLKPEDTAVYYCAAYGRWPFTWYNYWGQGTQVTVSS | low polyreactivity |
| QVQLVESGGVLVQAGGSLRLSCAASGSTFSYYTMGWYRQAPGKERELVATISKRGGTTSYADSVKGRFTISRDNAKNTVYLQMNSLKPEDTAVYYCAARYSKVHYAYDYWGQGTQVTVSS | high polyreactivity |
| QVQLVESGGVLVQAGGSLRLSCAASGSTFYNNAMGWYRQAPGKERALVATISSGGGSTYYADSVKGRFTISRDNEKNTVYLQMNSLKPEDTAVYYCAAYVLPYGEYDYWGQGTQVTVSS | low polyreactivity |
| QVQLVESGGVLVQAGGSLRLSCAASGSTLSPYVMGWYRQAPGKERELVATISRSGGRTYYADSVKGRFTISRDNAKNTVYLQMNSLKPEETAVYYCAARTYYWGALIVSYDYWGQGTQVTVSS | low polyreactivity |
| QVQLVESGGVLVQAGGSLRLSCAASGTFVVNDMGWYRQGPGKERELVAALSWSGGSTYYADSVKGRFTISRDNAKNTVYLQMTSLKPEDTAVYYCAADNWWVYPVWYENDYWGQGTQVTVSS | low polyreactivity |
| QVQLVESGGVLVQAGGSLRLSCAASGTFYPNARGWYRQAPGKDRELVAALSEDGGGTYYADSVKGRFTISRDNAKNTVYLQMNSLKPEDTAVYYCAAEYYDYWYTFDYWGQGTQVTVSS | high polyreactivity |

| Sequence | polyreactivity (PSR sort gate) |
| --- | --- |
| QVQLVESGGVLVQAGGSLRLSCAASGYIFEGNAMGWYRQAPGKERDFVAAITKRGGSTYYADSVKGRFTISRDNAKNTVYLQMNSLKPEDTAVYYCAADRSYPRAGRYDYWGQVTQVTVSS | low polyreactivity |
| QVQLVESGGVLVQAGGSLRLSCAASRSIFQGYVMGWYRQAPGKERELVAAISYSGDSTYYADSVKGRFTNSRDNAKNTVSLQINSVKPEDTAVYYCNAYRNRYGYRTSSRRYGYWGQGTQVTVSS | high polyreactivity |
| QVQLVESGGVLVQAGGSLRLSCAASRSTFTSYAMGWSRQAPGKERELVADISFSGGSTYYADSVKGRFTISRDIAKNSVYSQMNRLTPEDTAVYSCAARIYKRYYWGQGTQVTVSS | high polyreactivity |
| QVQLVESGGVLVQAGGSLRLSCAASVGIFDYYTMGWYRQAPGKERELVAAISASGGITYYADSVKGRFTISRDNANNTVYLQMNSMKPEDTAVYYCAAGVRNDYWWYYYWGQGTQVTVSS | high polyreactivity |
| QVQLVESGGVLVQAGGSLRLSCAAYGFSFNDYAMGWYRQAPGKERELVAAIDWSGGRTYYADSVKGRFTISRDNAKNTVYLQMNSLKPEDTAVYYCAAVLYSRLYWYRLDYWGQGTQVTVSS | low polyreactivity |
| QVQLVESGGVLVQAGGSLRVSCAASGGIFPRYTMGWSRQAPGKERELVASITRSGASTYYADSVKGRFTISRDKAKNTVYLPINSQKPEDTWFYYVISDVYVYSVTSHYTSSRLDYWGQGTQVTVSS | high polyreactivity |
| QVQLVESGGVLVQAGRSLRLSCAASGSPFRIYAMGWYRQAPGKERELVAAISSGGRTNYADSVKGRFTISRDNAKNTVYLQMNSLKPEDTAVYYCATVGYSSSTSGNRYGRAYYYWGQGTQVTVSS | high polyreactivity |
| QVQLVESGGVLVQGGGSLRLSCAASGSIFPFYALGWYRQAPGKERELVATNSWSGGRTYYADSVKGRFTKSRDNAKTNVYLQINILIPEDTAVYYCAAGSYHYPNAYYYWGQGTQLTVSS | high polyreactivity |
| QVQLVESGIGLVQAGGSLRLSCAASGRTLGGNAMGWYRQAPGKERELVAAINWSGGITYYADSVKGRFTISRDNAKNTVYLQMNSLKPEDTAVYYCARYKYNRQTRVEYGYWGQGTLVTVSS | high polyreactivity |
| QVQLVESGRGLDQAGGSLRLICYASGRTFLYNAMGWFRQSPGKERELVAAIRWSGGTTYYADSVKGRFTISRDNSKNNVYLQMNSLKPEDTAIYYCAARWGQYYGGVRYGYWGQGTQVTVSS | high polyreactivity |
| QVQLVESGRGLFHAGGSLRLSCAASGNTFGKYDMGWSIQAPGKERELVAAISKSSGSTYYADSVKGRFTISRDNAKNTVYFQMNSLKPEDTAVYYCAAEAYRYAWYDYWGQGTQVTVSS | high polyreactivity |
| QVQLVESGRGLFQAGGSLRISCAASGSTYQFYAMGWYRQAPGIERELVASIRVRSGTTYYADSVKGRFTISRDNAKNTVYLQMNSLKPEDTAVYYCASGRPYYGRKYDYWGQGTQVTVSS | high polyreactivity |
| QVQLVESGRGLFQSGGSLRLSCAASGRTFVPYAMGWYRQAPGKESELVAAISYSGDSTYYADSVKGRFTISRDNAKNTVYLQMKSLIPEDTAVYYCAKRGPVRNTAYDYWGQGTQVTVSS | low polyreactivity |
| QVQLVESGRGLVLAGGSLRLSCAASGRIFRYYAMGWYRQATGKERELVAGISWRGSSTYYADSVKGRFTISRDNAKNTVYLQMNSLKPEDTAVYYCNRDQSYIPVTGGRFYYWGQGTQVTVSS | high polyreactivity |
| QVQLVESGRGLVQAGCSLRLSCPASGIIFTTYDMGWYRQAPGKERELVAAISSSTTNTYYADSVKWRFTISRDNAMNTVYLQMNSLKPEETAVYYCAAPYKSNAGFDYWGQGTQVTVSS | low polyreactivity |
| QVQLVESGRGLVQAGGRLRLSCAASGRTFSRNAMGRYRQAPGKERELVAAISFRGVSTYYADSEKGRFTISRDNAKNTVYLQLNSLKPEDTAVYYCARRYTSKGGYDYWGQGTQVTVSS | high polyreactivity |
| QVQLVESGRGLVQAGGSLRISCAASGFTFSRYAMGWYRQAPGKERELVAAISLRGGRTYYADSVKGRFTISRDNAKNTVYLQMNSLKPEDTAVYYCNRDYRGPYYYWGQGTQVTVSS | high polyreactivity |
| QVQLVESGRGLVQAGGSLRISCAASGSTFYPNAMGWYRQAPGKEREFVAAISTSAGRTYYADSVKGRFTISRDNAKNTVYLQMNSLKPEDTAVYYCNARYWVYYVYEFDSWGQGTQVTVSS | low polyreactivity |
| QVQLVESGRGLVQAGGSLRLISAASGSIFVHNTMGWYSQAPGKDRELVAAITYSGGSTNYADSVKGRFTISRDNAKNTVYLQMNSLKPEDTAVYYCATRAISQFHSLGYYYWGQGTEVTVSS | low polyreactivity |
| QVQLVESGRGLVQAGGSLRLRCAASGRNIRAYAMGCYRQAPGTERDLVAAITWSGGGTYYADSVKGRFTISRDNAKNTVYLQMTSLKPEDTAVYYCAAVTTLRPSWKRYYYWGQGTQVTVSS | high polyreactivity |
| QVQLVESGRGLVQAGGSLRLSCAASGFTFLLNAMGWYRQAPGKERELVAAITYSGGSTYYADSVKGRFTISRDNAKNTVYLQMNSLKPEDTAVYYCAKTSVTISEYEYWGQGTQVTVSS | low polyreactivity |

Reference: the nanobody polyreactivity screen of Harvey et al. (2022)
